Measurements published in patent US20230340152A1 (published 2023).

Key:
[1] = biological target: T1, Human CD73 ECD (human, UniProt P21589 27-549); assay: direct ELISA, normalized Fab supernatant, vs CD730010 GL9
T1 construct: Biotinylated in some assays; also called human CD73 extracellular domain; huCD73
T1 sequence: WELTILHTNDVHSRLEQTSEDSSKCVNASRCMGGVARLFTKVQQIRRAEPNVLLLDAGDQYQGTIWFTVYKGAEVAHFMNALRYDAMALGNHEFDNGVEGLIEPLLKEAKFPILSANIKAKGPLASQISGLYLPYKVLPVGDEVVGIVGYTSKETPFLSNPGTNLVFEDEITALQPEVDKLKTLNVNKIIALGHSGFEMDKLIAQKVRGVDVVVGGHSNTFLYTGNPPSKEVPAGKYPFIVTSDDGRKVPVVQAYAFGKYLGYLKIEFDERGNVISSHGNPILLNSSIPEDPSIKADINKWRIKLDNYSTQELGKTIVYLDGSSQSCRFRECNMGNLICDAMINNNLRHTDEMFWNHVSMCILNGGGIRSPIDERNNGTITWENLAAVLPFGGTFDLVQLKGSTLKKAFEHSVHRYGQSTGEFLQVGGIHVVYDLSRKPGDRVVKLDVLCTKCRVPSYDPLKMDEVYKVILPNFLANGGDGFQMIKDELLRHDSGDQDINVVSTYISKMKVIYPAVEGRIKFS

[2] = biological target: T2, Murine CD73 ECD (murine, UniProt Q61503 29-551, limits assumed); assay: as above
T2 construct: extracellular domain; In-house recombinant ECD; also called murine CD73 extracellular domain; muCD73
T2 sequence (looked up): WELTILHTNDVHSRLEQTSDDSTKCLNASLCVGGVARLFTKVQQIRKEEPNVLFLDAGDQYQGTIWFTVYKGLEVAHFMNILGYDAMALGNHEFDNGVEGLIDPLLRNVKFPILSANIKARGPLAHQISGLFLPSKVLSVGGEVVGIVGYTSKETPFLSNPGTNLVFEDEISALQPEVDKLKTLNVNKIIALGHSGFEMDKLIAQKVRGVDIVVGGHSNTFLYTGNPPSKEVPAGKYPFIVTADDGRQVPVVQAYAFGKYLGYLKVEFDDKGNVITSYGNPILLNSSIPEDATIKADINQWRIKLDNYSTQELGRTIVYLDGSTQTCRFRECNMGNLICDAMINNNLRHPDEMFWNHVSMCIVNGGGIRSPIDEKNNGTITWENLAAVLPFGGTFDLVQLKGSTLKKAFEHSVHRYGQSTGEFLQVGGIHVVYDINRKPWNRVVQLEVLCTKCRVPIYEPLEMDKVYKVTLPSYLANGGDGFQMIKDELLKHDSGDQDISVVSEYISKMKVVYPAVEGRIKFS

[3] = biological target: T3, Human CD73 on cells (MDA-MB-231, Jurkat CD73 knock-in, NCI-H322) (human, UniProt P21589 27-549); assay: cell-based or functional assay
T3 sequence: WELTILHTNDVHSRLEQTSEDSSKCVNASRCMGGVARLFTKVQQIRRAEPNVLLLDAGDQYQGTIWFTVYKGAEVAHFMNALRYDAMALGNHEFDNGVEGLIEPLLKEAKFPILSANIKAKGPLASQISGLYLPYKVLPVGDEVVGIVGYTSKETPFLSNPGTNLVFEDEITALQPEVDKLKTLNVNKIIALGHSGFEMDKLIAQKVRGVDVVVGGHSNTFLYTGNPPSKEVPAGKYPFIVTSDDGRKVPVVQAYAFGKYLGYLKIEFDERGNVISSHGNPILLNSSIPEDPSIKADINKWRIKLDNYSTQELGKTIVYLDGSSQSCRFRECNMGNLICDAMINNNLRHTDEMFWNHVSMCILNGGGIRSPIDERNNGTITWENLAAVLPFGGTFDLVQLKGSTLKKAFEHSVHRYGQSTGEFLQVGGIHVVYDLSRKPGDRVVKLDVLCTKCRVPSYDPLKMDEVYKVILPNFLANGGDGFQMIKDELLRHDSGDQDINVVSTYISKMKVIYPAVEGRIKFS

[4] = biological target: T1, Human CD73 ECD; assay: cell-based or functional assay
[5] = biological target: T1, Human CD73 ECD; assay: binding assay, format not stated
[6] = biological target: T2, Murine CD73 ECD; assay: binding assay, format not stated
[7] = biological target: T4, Cynomolgus CD73 ECD (cynomolgus, UniProt A0A2K5V5U7 27-549); assay: binding assay, format not stated
T4 construct: extracellular domain; also called cyno CD73
T4 sequence: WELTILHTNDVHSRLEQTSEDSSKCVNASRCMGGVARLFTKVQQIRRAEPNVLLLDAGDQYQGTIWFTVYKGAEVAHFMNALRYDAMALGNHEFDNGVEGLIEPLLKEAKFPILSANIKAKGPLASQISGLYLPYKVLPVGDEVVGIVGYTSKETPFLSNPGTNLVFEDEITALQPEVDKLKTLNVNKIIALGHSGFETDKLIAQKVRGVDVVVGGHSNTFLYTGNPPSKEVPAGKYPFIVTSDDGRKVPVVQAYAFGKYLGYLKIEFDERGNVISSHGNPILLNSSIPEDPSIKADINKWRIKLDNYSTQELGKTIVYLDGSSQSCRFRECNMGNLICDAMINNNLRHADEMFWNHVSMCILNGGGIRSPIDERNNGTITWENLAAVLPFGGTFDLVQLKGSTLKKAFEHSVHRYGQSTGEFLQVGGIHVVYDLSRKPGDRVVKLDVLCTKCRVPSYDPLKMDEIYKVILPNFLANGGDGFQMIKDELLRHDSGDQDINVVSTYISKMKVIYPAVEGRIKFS

Row | Binder | ELISA signal, fold improvement over parental antibody [1] | ELISA signal, fold improvement over parental antibody [2] | Enzyme Inhibition, MDA-MB-231, 1/EC50 (nM) [3] | Internalization, MDA-MB-231, 1/EC50 (nM) [3] | Enzyme Inhibition, rCD73, 1/EC50 (nM) [4] | 1/EC50 [5] | 1/EC50 [6] | 1/EC50 [7]
1 | CD730010 GL9 VH S35H Fab (Fab, name in Kabat numbering, V domains shown, Bacterial Fab, normalized supernatant) VH: EVQLLESGGGLVQPGGSLRLSCAASGFTFSSYAMHWVRQAPGKGLEWVSAISGSGGSTYYADSVKGRFTISRDNSKNTLYLQMNSLRAEDTAVYYCARLGYSTIDYWGRGTLVTVSS VL: not shown | 1.8 fold | 1.1 fold | – | – | – | – | – | –
2 | CD730010 GL9 VH S52W Fab (Fab, name in Kabat numbering, V domains shown, Bacterial Fab, normalized supernatant) VH: EVQLLESGGGLVQPGGSLRLSCAASGFTFSSYAMSWVRQAPGKGLEWVSAIWGSGGSTYYADSVKGRFTISRDNSKNTLYLQMNSLRAEDTAVYYCARLGYSTIDYWGRGTLVTVSS VL: not shown | 8.9 fold | 4.4 fold | – | – | – | – | – | –
3 | CD730010 GL9 VH S56R Fab (Fab, name in Kabat numbering, V domains shown, Bacterial Fab, normalized supernatant) VH: EVQLLESGGGLVQPGGSLRLSCAASGFTFSSYAMSWVRQAPGKGLEWVSAISGSGGRTYYADSVKGRFTISRDNSKNTLYLQMNSLRAEDTAVYYCARLGYSTIDYWGRGTLVTVSS VL: not shown | 5.6 fold | 4.9 fold | – | – | – | – | – | –
4 | CD730011 (antibody, V domains shown, IgG1-TM format; also called CD730011 antibody; CD7300011) VH: not shown VL: NFMLTQPHSVSESPGKTVTISCTRSSGSIASKYVQWYQQRPGSSPMAVIYKDNQRSSGVPDRFSGSIDSSSNSASLTISGLKPEDEADYYCQSYDASNYYVFGTGTKVTVL | – | – | 0.00068 nM⁻¹ | 0 nM⁻¹ | 0 nM⁻¹ | 0.0021 nM⁻¹ | 0.0015 nM⁻¹ | 0.0027 nM⁻¹
5 | CD730021 (antibody, V domains shown, IgG1-TM format; also called CD730021 antibody) VH: QVQLQESGPGLVRPSETLSLTCTVSGGSISSSSYYWAWVRQSPGKGLEWIGNIYYRGSTYYNPSLKSRVTMSVDMSKHQFSLKLSSLNAADTAVYYCASLYSGTYVFDYWGRGTLVTVSS VL: QSVLTQPPSASGTPGQRVTISCSGSRPNIGGNTVNWYQQLPGAAPKLLIYSNSQRPSGVPDRFSGSKYGTSASLAISGLQSDDEADYYCGTWDDSLNGPVFGRGTKLTVL | – | – | 0.0095 nM⁻¹ | 0.0011 nM⁻¹ | 0.0011 nM⁻¹ | 0.00085 nM⁻¹ | 0.00057 nM⁻¹ | 0.0012 nM⁻¹
6 | CD730042 (antibody, V domains shown, IgG1-TM format; also called CD730042 antibody) VH: GVQLVQSGGGLVQPGGSLRLSCAASGFTFSSYGMHWVRQAPGKGLEWVAVISYDGSIKYYADSVKGRFTISRDDSKNALYLQMNSLRAEDTAVYYCSTLSGSYGYFDYWGRGTLVTVSS VL: QSVLTQPASVSGSPGQSITISCAGTSSDVGGYNYVSWYQQHPGKAPKLMIYEGSKRPSGVSNRFSGSKSGNTASLTISGLQAEDEADYYCSSYTTRSTRVFGGGTKLTVL | – | – | 0.0032 nM⁻¹ | 0 nM⁻¹ | 0 nM⁻¹ | 0.0017 nM⁻¹ | – | 0.0014 nM⁻¹
7 | CD730046 (antibody, V domains shown, IgG1-TM format; also called CD730046 antibody) VH: QVQLVQSGGGVVQPGRSLRLSCAASGFTFSSYGMHWVRQAPGKGLEWVAVISYDGSIKYYADSVKGRFTISRDNSKNSLFLQMNSLRDDDTATYYCARGHLLRIGDIFYYSLDVWGQGTLVTVSS VL: not shown | – | – | 0.081 nM⁻¹ | 0 nM⁻¹ | 0 nM⁻¹ | 0.0041 nM⁻¹ | 0.0052 nM⁻¹ | 0.01 nM⁻¹
